According to PMC6065417, “Neutralization of Junín virus by single domain antibodies targeted against the nucleoprotein” (Scientific Reports, 2018):

How the values were obtained:
Conditions in all cases: one partner purified
[1] = target: T1, Junín virus nucleoprotein (N) of strain XJCl3, expressed from a plasmid (Junín virus (Junin mammarenavirus), …, UniProt F4ZL09, strain); experiment: immunostaining of cells or tissue
T1 construct: also called N from XJCl3

[2] = target: T2, Junín virus nucleoprotein (N) of strain Candid#1, expressed from a plasmid (Junin mammarenavirus, Candid#1, UniProt F4ZL09, strain); experiment: immunostaining of cells or tissue
T2 construct: also called N from Candid#; Candid#1N; source: Vero cells, transfected (Fugene), in fixed and permeabilized cells

[3] = target: T3, Junín virus nucleoprotein (N) in Candid#1-infected cells (Junin mammarenavirus, Candid#1, UniProt F4ZL09, strain); experiment: co-IP
T3 construct: also called viral N; Candid#1N

Measured: binding result

B1: VHH 2.3 (VHH)
VHH: QVQLVESGGGLVQPGGSLRLSCAASGSIDSINAMAWYRQAPGKERELVAGISKNGIPWYLDSLKGRFNVSRDNAKNTLYLQIHNLKPEDAAMYYCASSSRTIATTTNEFDFWGQGTQVTVSS
notes: source: E. coli, periplasmic extract, purified (Ni-NTA); not shown: His6, C-terminal, kept
binds: all assays above
